Laboratory results taken from paper PMC6318328, “Structural insights into trans-histone regulation of H3K4 methylation by unique histone H4 binding of MLL3/4” (Nature Communications, 2019).

B1: MLL3 ePHD6: extended PHD6 domain of MLL3 (protein)
chain: VWCRHCGATSAGLRCEWQNNYTQCAPCASLSSCPVCYRNYREEDLILQCRQCDRWMHAVCQNLNTEEEVENVADIGFDCSMCRPYMPASN
modifications: left off: GST, N-terminal, cleaved | His tag, N-terminal, cleaved
B2: MLL3_C: C terminus of MLL3 with the catalytic SET domain (protein)
chain: DHTFRVGSLIFHTIGQLLPQQMQAFHSPKALFPVGYEASRLYWSTRYANRRCRYLCSIEEKDGRPVFVIRIVEQGHEDLVLSDISPKGVWDKILEPVACVRKKSEMLQLFPAYLKGEDLFGLTVSAVARIAESLPGVEACENYTFRYGRNPLMELPLAVNPTGCARSEPKMSAHVKRFVLRPHTLNSTSTSKSFQSTVTGELNAPYSKQFVHSKSSQYRKMKTEWKSNVYLARSRIQGLGLYAARDIEKHTMVIEYIGTIIRNEVANRKEKLYESQNRGVYMFRMDNDHVIDATLTGGPARYINHSCAPNCVAEVVTFERGHKIIISSSRRIQKGEELCYDYKFDFEDDQHKIPCHCGAVNCRKWMN
modifications: left off: FLAG, end not stated, kept
notes: C terminus of MLL3 with the catalytic SET domain
B3: MLL4 ePHD6: extended PHD6 domain of MLL4 (protein)
chain: VSCMQCGAASPGFHCEWQNSYTHCGPCASLVTCPICHAPYVEEDLLIQCRHCERWMHAGCESLFTEDDVEQAADEGFDCVSCQPYVVKPV
modifications: left off: GST, N-terminal, cleaved | His tag, N-terminal, cleaved

Experiments:
[1] = Gel filtration, oligomeric state in solution; type: physicochemical; conditions: Superdex200 10/300 GL, 20 mM Tris pH 7.5, 150 mM NaCl, 50 μM ZnCl2, 1 mM DTT
Description: Supplementary Fig. 3 Superimposition of gel-filtration curves of PHD6 and ePHD6 domains of MLL3 and MLL4. Gel filtration chromatography of MLL3 ePHD6 (red), PHD6 (pink), MLL4 ePHD6 (brown), PHD6 (green) and protein molecular weight standards (blue, Bio-Rad). Samples were loaded to the Superdex200 10/300 GL (GE Healthcare) column in the buffer containing 20 mM Tris, pH 7.5, 150 mM NaCl, 50 μM ZnCl2,and1mMDTT. […]

[2] = system: recombinant nucleosomes (histone H3K4); assay: In vitro histone methyltransferase (HMT) assay of MLL3/MLL4 constructs; type: biochemical; conditions: recombinant nucleosomes 0.5 μg, 2.5 μCi [3H]-SAM, 30 °C, 16 h, autoradiography (Fig. 3b, c)
Description: Mammalian expression plasmids encoding different fusions of MLL3 PHD and SET domains were subcloned into the pFLAG-CMV2 vector (Sigma-Aldrich, E7033) and were transiently expressed in HEK 293T cells (ATCC® ACS-4500™) by using Lipofectamine 2000 (ThermoFisher Scientific, 11668027) according to manufacturer’s protocol. Two days after transfection, cells were harvested and then lysed by mammalian lysis buffer (20 mM Tris-HCl, 137 mM NaCl, 1.5 mM MgCl2, 1 mM EDTA, 10% glycerol, 1% Triton X-100, 0.2 mM PMSF, 1 μg mL^−1 aprotinin, 2.5 μg mL^−1 leupeptin, and 1 μg mL^−1 pepstatin at pH 8.0). FLAG immunoprecipitation (FLAG IP) was performed in a similar way as described previously. In brief, total cell lysates were incubated with anti-FLAG M2 Affinity Gel (Sigma-Aldrich, A2220) in 4 °C for 5 h and were extensively washed with BC500 (20 mM Tris-HCl, 500 mM KCl, 1.5 mM MgCl2, 0.2 mM EDTA, 10% glycerol, 0.2 mM PMSF at pH 8.0). […]
HMT assay was performed according to a previously described method with minor modifications. […] The signals for HMT activity were detected by autoradiography. The input of the MLL3/4 proteins and nucleosomes were detected by mouse monoclonal anti-FLAG M2 (Sigma-Aldrich, F3165, 1:1000) and rabbit polyclonal anti-H3 antibody (Abcam, ab1791, 1:1000), respectively. […]

Molecule	oligomeric state in solution [1]	nucleosomal methyltransferase activity [2]
B1	monomer in solution	–
B2	–	did not show any detectable nucleosomal methylation activity
B3	dimer in solution	–
